The values below come from paper PMC3974617 (Developmental cell, 2013).

This data set deals with the molecule itself. Kind of data set: negative-stain EM.

B1: full-length recombinant human VPS41 (His-hVPS41) (natural protein, UniProt P49754 1-854, looked up)
chain: MAEAEEQETGSLEESTDESEEEESEEEPKLKYERLSNGVTEILQKDAASCMTVHDKFLALGTHYGKVYLLDVQGNITQKFDVSPVKINQISLDESGEHMGVCSEDGKVQVFGLYSGEEFHETFDCPIKIIAVHPHFVRSSCKQFVTGGKKLLLFERSWMNRWKSAVLHEGEGNIRSVKWRGHLIAWANNMGVKIFDIISKQRITNVPRDDISLRPDMYPCSLCWKDNVTLIIGWGTSVKVCSVKERHASEMRDLPSRYVEIVSQFETEFYISGLAPLCDQLVVLSYVKEISEKTEREYCARPRLDIIQPLSETCEEISSDALTVRGFQENECRDYHLEYSEGESLFYIVSPRDVVVAKERDQDDHIDWLLEKKKYEEALMAAEISQKNIKRHKILDIGLAYINHLVERGDYDIAARKCQKILGKNAALWEYEVYKFKEIGQLKAISPYLPRGDPVLKPLIYEMILHEFLESDYEGFATLIREWPGDLYNNSVIVQAVRDHLKKDSQNKTLLKTLAELYTYDKNYGNALEIYLTLRHKDVFQLIHKHNLFSSIKDKIVLLMDFDSEKAVDMLLDNEDKISIKKVVEELEDRPELQHVYLHKLFKRDHHKGQRYHEKQISLYAEYDRPNLLPFLRDSTHCPLEKALEICQQRNFVEETVYLLSRMGNSRSALKMIMEELHDVDKAIEFAKEQDDGELWEDLILYSIDKPPFITGLLNNIGTHVDPILLIHRIKEGMEIPNLRDSLVKILQDYNLQILLREGCKKILVADSLSLLKKMHRTQMKGVLVDEENICESCLSPILPSDAAKPFSVVVFHCRHMFHKECLPMPSMNSAAQFCNICSAKNRGPGSAILEMKK
As for B1, the “stoichiometry N” value was 2.
